Laboratory results from patent US20090305339A1, “Polypeptides With Laccase Activity” (VIALACTIA BIOSCIENCES (NZ) LIMITED, priority 2006, published 2009).

Assays:
[1] = Oxidation of anthracene (HPLC, GC-MS/MS); format: biochemical; conditions: 50 μM anthracene, HOBt, pH 4.5, overnight, room temperature
Description: Procedures for cloning, expression and purification of laccase are described in the reference: Beloqui, A., et al. (2006), which is made part of the disclosure of the present application.
HPLC conditions: the HPLC (Varian 9012) was provided with an automatic injector (Autosampler L2200, VWR Hitachi). 10 μL of sample reaction were injected to a C18 Nucleosil 3 μm, 80×4 mm, column (AV-2486, Analisis Vinicos S. A.). The mobile phase consisted of acetonitrile:water 70:30 (v/v) and the flow rate was controlled at 1 mL/min. A PhotoDiode Array Detector (Prostar 335, Varian) with the UV lamp fixed to 251 nm was used to detect the eluted compounds.

[2] = Laccase activity, violuric acid as substrate; format: biochemical
[3] = Laccase activity, 3,4-dimetoxybenzyl alcohol as substrate; format: biochemical
Description: Laccase activity was determined spectrophotometrically in a thermostated spectrophotometer (Perkin-Elmer) at 40° C. in 100 mM sodium citrate buffer, pH 4.5 (1 ml). The standard assay was performed at 530 nm, using SGZ as the oxidation substrate (ε530=64,000 M^−1cm^−1). The reaction was started by adding SGZ, from a stock solution in methanol, to a final concentration of 20 μM. […] Oxidation of phenol red (75 μM) was determined by the decrease in absorbance at 432 nm. The activity:pH and activity:temperature relationships were determined by incubating the enzyme:substrate mixtures at different pH values and constant temperature (40° C.), and at different temperatures (15-80° C.) and constant pH (4.5), respectively. Catalytic constants were derived by fitting the experimental data onto the Michaelis-Menten model. Control measurements without enzyme were carried out to correct for possible chemical oxidation of the substrates.

[4] = Decolorization of Poly R-478; format: biochemical; conditions: Poly R-478 0.025%, pH 4.5, room temperature, 0.2 units enzyme, 3500 min
Description: Decolorization of Poly-R 478 (0.025 w/v) in the presence or absence of HOBt (1-Hydroxybenzotriazole) (0.9 mM) was determined spectrophotometrically (520 nm) at room temperature in 100 mM sodium phosphate buffer pH 4.5.

[5] = Electrochemical analysis of immobilized laccase in absence of substrate; conditions: for potential at which electro-reduction of oxygen begins: no substrate
Text: Electrochemical information on electrodes modified with RL5 laccase in absence of substrate was also obtained (FIGS. 3C,D). Again, we found some differences when the electrode material was gold or glassy carbon. Thus, the electro-reduction of oxygen begins in +250 mV when the electrode was gold (FIG. 3C), while it began at +500 mv when it was glassy carbon (FIG. 3D). We found additional information on the glassy carbon electrode compared with the gold electrode. Thus, when removing the oxygen from solution, the T1 copper site oxidization potential of 740 mV vs. NHE was registered. In addition, when a reactivation with oxygen was performed, the three oxidation potential peaks were registred: T1 of 745 mV vs. NHE was the highest; T3 site of 500 mV vs. NHE had two copper ions, so it is the one with a higher area; T2 site had 400 mV vs. NHE. The redox potential of T1 was registered to be in the range of fungal laccases (480-785 mV) (Solomon et al., 1996; Klonowska etal., 2002).
The electrochemical measurements have been performed with BAS CV-50W voltammetric analyzer. For gold surface experiments, a gold BAS disc electrode has been used. The electrode was cleaned according to the following procedure: the electrode was firstly immersed in “piranha” solution, containing 1 part of hydrogen peroxide 33% v and 3 parts of sulphuric acid 98%, during 5 minutes, after which the electrode was rinsed thoroughly with milliQ water, and polished with Buehler® micropolish gamma alumina #3, 0.05 micron size, during 5 minutes, on a polishing cloth, further immersed into a milliQ water solution and exposed to ultrasounds for 15 minutes. Then, the electrode was cleaned with sulphuric acid oxidization cyclic voltammetry for 30 minutes. The electrode was rinsed three times with milliQ water and polished again for another 5 minutes with the same alumina powder. After the subsequent sonication for 15 minutes, the electrode was finally inmersed into a reductive 0.5 M NaOH solution for 30 minutes and rinsed with milliQ water. The laccase enzyme was immobilized by dropping […] of the enzyme solution at a concentration of 5 mg/ml on the gold surface facing upward and covered to avoid evaporation. After 90 minutes, the second drop was added. After 180 minutes from the first addition, the laccase-modified gold electrode was measured in 100 mM phosphate buffer (pH 6.0) in the presence of oxygen. For measurements under anaerobic conditions, N2 was “bubbled” for 15 minutes into the electrochemical cell. The same procedure was repeated for measuring in presence of 2,6-dimethoxyphenol, used as a test substrate. The immobilization on the carbon electrode was performed on a BAS glassy carbon electrode. The electrode was polished on a graphite-polishing cloth for 5 minutes, until mirror-like surface was achieved. The electrode was rinsed thoroughly with water and, facing upwards, 20 μl of the laccase solution (5 mg/ml) were dropped on the classy carbon surface. The electrode was covered and let to immobilize for 20 minutes. All electrochemical measurements performed for the gold electrode are repeated for this electrode.

[6] = Electrochemical analysis of immobilized laccase in the presence of DMP; conditions: for electrochemical activity (current): DMP
Text: RL5 was immobilized on BAS glassy carbon electrodes (FIGS. 3B,D) or on gold electrodes (FIGS. 3A,C). Both materials provide different enzyme orientations:
(i) the carbon electrode presents hydroxyl groups on the surface, providing a laccase substrate-like structure, which makes the enzyme to immobilize preferably with the active site facing the electrode surface; and
(ii) gold provides high hydrophobic surface that avoids the contact between the high-hydrophilic density amino acid domain of the enzyme and the electrode, being the hydrophobic domains which preferably orient towards the gold surface.
Some differences in the electrochemical measurements were observed due to the different orientation of the enzyme on the electrode in the presence of substrate (DMP) (FIGS. 3A,B). Thus, when RL5 laccase was immobilized on gold (FIG. 3A), the activity in the presence of oxygen was of 0.38 microamperes (dashed line), whereas in the absence of oxygen it was of 0.69 microamperes (dotted line). Most likely, the enzyme is using approximately half of the electrons for the reduction of the substrate and the other half from the oxygen in the solution; however, in absence of oxygen, all the electrons are used from the electrode, giving a higher measurement value. When using the carbon electrode (FIG. 3B), the enzyme orients in such a way that the measure, in the presence of oxygen, was 2.8 microamperes (dashed line). This could be explained by the fact that 93% of the electrons are used from the electrode, either because of different enzyme orientations, or because the immobilization on carbon kept higher amount (approximately 7 times) of laccase active. In the carbon electrode the T2 copper oxidization potential site, +500 vs. normal hydrogen electrode (NHE) was determined.
The electrochemical measurements have been performed with BAS CV-50W voltammetric analyzer. For gold surface experiments, a gold BAS disc electrode has been used. The electrode was cleaned according to the following procedure: the electrode was firstly immersed in “piranha” solution, containing 1 part of hydrogen peroxide 33% v and 3 parts of sulphuric acid 98%, during 5 minutes, after which the electrode was rinsed thoroughly with milliQ water, and polished with Buehler® micropolish gamma alumina #3, 0.05 micron size, during 5 minutes, on a polishing cloth, further immersed into a milliQ water solution and exposed to ultrasounds for 15 minutes. Then, the electrode was cleaned with sulphuric acid oxidization cyclic voltammetry for 30 minutes. […] After 180 minutes from the first addition, the laccase-modified gold electrode was measured in 100 mM phosphate buffer (pH 6.0) in the presence of oxygen. […]

[7] = Laccase activity, 1-HBT as substrate; format: biochemical
[8] = glassy carbon, after reactivation with oxygen, vs. NHE

substrate of the laccase [2]: not substrates
electrochemical activity (current) ([6]; carbon electrode, presence of oxygen): 2.8 microamperes
electrochemical activity (current) ([6]; gold electrode, absence of oxygen): 0.69 microamperes
electrochemical activity (current) ([6]; gold electrode, presence of oxygen): 0.38 microamperes
substrate of the laccase [7]: not substrates
B1: RL5: polypeptide with laccase activity from bovine rumen metagenome library, amino acid sequence of FIG. 11 (protein)
chain: MIELEKLDFAKSVEGVEAFSTTRGQVDGRNAYSGVNLCDYVGDDALRVLDARLTLAMQLGVDLDDLVMPRQTHSCRVAVIDERFRALDIDEQEAALEGVDALVTRLQGIVIGVNTADCVPIVLVDSQAGIVAVSHAGWRGTVGRIAKAVVEEMCRQGATVDRIQAAMGPSICQDCFEVGDEVVEAFKKAHFNLNDIVVRNPATGKAHIDLRAANRAVLVAAGVPAANIVESQHCSRCEHTSFFSARRLGINSGRTFTGIYRK
modifications: Description of sequence Amino acid sequence of RL5 laccase 3217 to 2414 frame 1 - 262 amino acids (see Figure 11)
oxidation of anthracene [1]: efficiently oxidize anthracene to 9,10-antraquinone
substrate of the laccase [3]: not substrates
Poly R-478 solution oxidized [4]: more than 70%
potential at which electro-reduction of oxygen begins ([5]; glassy carbon electrode): +500 mv
T1 oxidation potential [5, 8]: 745 mV
T2 site oxidation potential [5, 8]: 400 mV
T3 site oxidation potential [5, 8]: 500 mV
T1 copper site oxidization potential ([5]; glassy carbon, oxygen removed from solution, vs. NHE): 740 mV
potential at which electro-reduction of oxygen begins ([5]; gold electrode): +250 mV
T2 copper oxidization potential site ([6]; carbon electrode, vs. normal hydrogen electrode (NHE)): +500
